Experimental data as given in US20150175665A1 (IPSEN PHARMA S A S, published 2015).

Molecular target: T1, human recombinant GIP receptor (human, UniProt P48546 22-466)
T1 construct: whole, on cells; Assayed as washed membranes of CHO-K1 cells expressing the receptor; also called hGIP receptor
T1 sequence (looked up): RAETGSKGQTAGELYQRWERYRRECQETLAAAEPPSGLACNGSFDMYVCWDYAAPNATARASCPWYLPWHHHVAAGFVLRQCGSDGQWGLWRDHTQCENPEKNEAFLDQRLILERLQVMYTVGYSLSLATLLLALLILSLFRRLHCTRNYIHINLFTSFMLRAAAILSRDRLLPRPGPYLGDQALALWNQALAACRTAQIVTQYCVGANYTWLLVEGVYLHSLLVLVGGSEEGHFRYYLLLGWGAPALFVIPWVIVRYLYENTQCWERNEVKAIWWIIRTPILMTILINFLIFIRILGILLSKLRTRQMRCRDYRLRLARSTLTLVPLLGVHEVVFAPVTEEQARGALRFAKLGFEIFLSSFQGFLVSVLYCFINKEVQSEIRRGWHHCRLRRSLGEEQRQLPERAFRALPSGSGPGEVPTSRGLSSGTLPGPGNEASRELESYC
Test: displacement of [125I]GIP, membranes of CHO-K1 cells expressing human GIP receptor
Description: Membranes for in vitro receptor binding assays were prepared by homogenizing the CHO—K1 clonal cells expressing the human recombinant GIP receptor, with a Brinkman Polytron (setting 6, 15 sec), in ice-cold 50 mM Tris-HCl and then subjected to two centrifugations at 39,000 g for 10 minutes, with a resuspension in fresh buffer in between. For the assay, aliquots of the washed membrane preparations were incubated (100 minutes at 25° C. with 0.05 nM [¹²⁵1]GIP (2200 Ci/mmol) in 50 mM Tris-HCl, 0.1 mg/ml bacitracin, and 0.1% BSA. The final assay volume was 0.5 ml. The incubations were terminated by rapid filtration through GF/C filters (pre-soaked in 0.5% polyethylenimine) using a Brandel filtration manifold. Each tube and filter were then washed three times with 5-ml aliquots of ice-cold buffer.
Specific binding was defined as the total radioligand bound minus that bound in the presence of 1000 nM GIP.

| Binder | Ki |
| --- | --- |
| FXEGTFISDYXIAXDKIHQQDFVNWLLAQKGKKNDWKHNITQ (3,4F-Phe at 1; Aib at 2; A5c at 11; Nle at 14) [(3,4F-Phe^1, Aib^2, A5c^11, Nle^14)hGIP(1-42)-OH] | 15.7 nM |
| FXEGTFISDYXIAXDKIHQQDFVNWLLAQKGKKNDWKHNITQ (4NH2-Phe at 1; Aib at 2; A5c at 11; Nle at 14) [(4NH2-Phe^1, Aib^2, A5c^11, Nle^14)hGIP(1-42)-OH] | 3.4 nM |
| YXEGTFISDYXIAMDKIHQQDFVNWLLAQKGKKNDWKHNIXQ (3OH-Tyr at 1; Aib at 2; A5c at 11 and 41) [(3OH-Tyr^1, Aib^2, A5c^11, 41)hGIP(1-42)-OH] | 6.69 nM |
| YXEGTFISDYXIAMDKIHQQDFVNWLLAQKGKKNDWKHNIXQ (3NO2-Tyr at 1; Aib at 2; A5c at 11 and 41) [(3NO2-Tyr^1, Aib^2, A5c^11, 41)hGIP(1-42)-OH] | 11.2 nM |
| FXEGTFISDYXIAXDKIHQQDFVNWLLAQKGKKNDWKHNITQ (3,4,5F-Phe at 1; Aib at 2; A5c at 11; Nle at 14) [(3,4,5F-Phe^1, Aib^2, A5c^11, Nle^14)hGIP(1-42)-OH] | 31.1 nM |
| FXEGTFISDYXIAXDKIHQQDFVNWLLAQKGKKNDWKHNITQ (3,5F-Phe at 1; Aib at 2; A5c at 11; Nle at 14) [(3,5F-Phe^1, Aib^2, A5c^11, Nle^14)hGIP(1-42)-OH] | 26 nM |
| FXEGTFISDYXIAXDKIHQQDFVNWLLAQKGKKNDWKHNITQ (4NH2CH2-Phe at 1; Aib at 2; A5c at 11; Nle at 14) [(4NH2CH2-Phe^1, Aib^2, A5c^11, Nle^14)hGIP(1-42)-OH] | 95 nM |
| XXEGTFISDYXIAXDKIHQQDFVNWLLAQKGKKNDWKHNITQ (hTyr at 1; Aib at 2; A5c at 11; Nle at 14) [(hTyr^1, Aib^2, A5c^11, Nle^14)hGIP(1-42)-OH] | 77.3 nM |
| XXEGTFISDYXIAMDKIHQQDFVNWLLAQKGKKNDWKHNIXQ (3-Pal at 1; Aib at 2; A5c at 11 and 41) [(3-Pal^1, Aib^2, A5c^11, 41)hGIP(1-42)-OH] | 9.75 nM |
| YXEGTFISDYXIAXDKIHQQDFVNWLLAQKGKKNDWKHNITQ (3,5Br-Tyr at 1; Aib at 2; A5c at 11; Nle at 14) [(3,5Br-Tyr^1, Aib^2, A5c^11, Nle^14)hGIP(1-42)-OH] | 21.8 nM |
| FXEGTFISDYXIAMDKIHQQDFVNWLLAQKGKKNDWKHNIXQ (4CN-Phe at 1; Aib at 2; A5c at 11 and 41) [(4CN-Phe^1, Aib^2, A5c^11, 41)hGIP(1-42)-OH] | 14.4 nM |
| YXEGTFISDYXIAXDKIHQQDFVNWLLAQKGKKNDWKHNITQ (3,5I-Tyr at 1; Aib at 2; A5c at 11; Nle at 14) [(3,5I-Tyr^1, Aib^2, A5c^11, Nle^14)hGIP(1-42)-OH] | 77.9 nM |

Next, values leading:

| Ki | Binder |
| --- | --- |
| 5 nM | XXEGTFXSDYSIAMDKIHQQDFVNWLLAQK (4Hppa at 1; Aib at 2; A5c at 7; C-terminal amide) [(4Hppa^1, Aib^2, A5c^7)hGIP(1-30)-NH2] |
| 3.33 nM | HXEGTFISDYSIXXDKIHQQDFVNWLLAQKGKKNDWKHNITQ (Aib at 2 and 13; Nle at 14) [(His^1, Aib^2, 13, Nle^14)hGIP(1-42)-OH] |
| 0.73 nM | YXEGTFISDYXIAMDKIHQQDFVNWLLAQKGKKNDWKHNIXQ (Tyr(Ac) at 1; Aib at 2; A5c at 11 and 41) [[Tyr(Ac)^1, Aib^2, A5c^11, 41]hGIP(1-42)-OH] |
| 4.5 nM | YXEGTFISDYXIAMDKIHQQDFVNWLLAQKGKKNDWKHNIXQ (Tyr(Me) at 1; Aib at 2; A5c at 11 and 41) [[Tyr(Me)^1, Aib^2, A5c^11, 41]hGIP(1-42)-OH] |
| 1.03 nM | YXEGTFISDYXIAMDKIHQQDFVNWLLAQKGKKNDWKHNIXQ (2,6Me-Tyr at 1; Aib at 2; A5c at 11 and 41) [(2,6Me-Tyr^1, Aib^2, A5c^11, 41)hGIP(1-42)-OH] |
| 2.7 nM | FXEGTFISDYXIAXDKIHQQDFVNWLLAQKGKKNDWKHNITQ (3F-Phe at 1; Aib at 2; A5c at 11; Nle at 14) [(3F-Phe^1, Aib^2, A5c^11, Nle^14)hGIP(1-42)-OH] |
| 9.4 nM | XXEGTFISDYXIAXDKIHQQDFVNWLLAQKGKKNDWKHNITQ (Cpa (4-Cl-phenylalanine) at 1; Aib at 2; A5c at 11; Nle at 14) [(Cpa^1, Aib^2, A5c^11, Nle^14)hGIP(1-42)-OH] |
| 3.28 nM | XXEGTFISDYXIAMDKIHQQDFVNWLLAQKGKKNDWKHNIXQ (Taz at 1; Aib at 2; A5c at 11 and 41) [(Taz^1, Aib^2, A5c^11, 41)hGIP(1-42)-OH] |
| 1.24 nM | YXEGTFISDYXIAMDKIHQQDFVNWLLAQKGKKNDWKHNIXQ (3MeO-Tyr at 1; Aib at 2; A5c at 11 and 41) [(3MeO-Tyr^1, Aib^2, A5c^11, 41)hGIP(1-42)-OH] |
| 8.14 nM | XXEGTFISDYXIAMDKIHQQDFVNWLLAQKGKKNDWKHNIXQ (4-Pal at 1; Aib at 2; A5c at 11 and 41) [(4-Pal^1, Aib^2, A5c^11, 41)hGIP(1-42)-OH] |
| 7.05 nM | XXEGTFISDYXIAMDKIHQQDFVNWLLAQKGKKNDWKHNIXQ (3Thi at 1; Aib at 2; A5c at 11 and 41) [(3Thi^1, Aib^2, A5c^11, 41)hGIP(1-42)-OH] |
| 7.52 nM | FXEGTFISDYXIAMDKIHQQDFVNWLLAQKGKKNDWKHNIXQ (3OH-Phe at 1; Aib at 2; A5c at 11 and 41) [(3OH-Phe^1, Aib^2, A5c^11, 41)hGIP(1-42)-OH] |
| 5.82 nM | FXEGTFISDYXIAMDKIHQQDFVNWLLAQKGKKNDWKHNIXQ (4F-Phe at 1; Aib at 2; A5c at 11 and 41) [(4F-Phe^1, Aib^2, A5c^11, 41)hGIP(1-42)-OH] |
| 3.18 nM | HXEGTFISDYXIAXDKIHQQDFVNWLLAQKGKKNDWKHNITQ (Aib at 2; A5c at 11; Nle at 14) [(His^1, Aib^2, A5c^11, Nle^14)hGIP(1-42)-OH] |
| 0.42 nM | YXEGTFISDYXIAXDKIHQQDFVNWLLAQKGKKNDWKHNITQ (3Cl-Tyr at 1; Aib at 2; A5c at 11; Nle at 14) [(3Cl-Tyr^1, Aib^2, A5c^11, Nle^14)hGIP(1-42)-OH] |
